From the supplement of paper PMC9876800

Test system: peptide library, one residue held at a place counted from the S/T acceptor
Test: relative phosphorylation of the sub-library (ratio to the mean residue at this position); higher = residue favoured
How it was run: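 Human or orthologue kinase constructs, purified and recombinant, were incubated under kinase-specific conditions in 384-well plates with biotinylated degenerate peptide sub-libraries. Each sub-library fixed one residue at one position around a central Ser/Thr. Incubations lasted 90 min with peptides at 50 μM and 50 μM ATP spiked with γ-32P-ATP, after which spots on streptavidin membranes were phosphorimaged and quantified by densitometry. Relative sub-library phosphorylation is a ratio to the mean residue at that position.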

Chain of DAPK2, construct: Full length, human (Q9UIK4 whole entry, looked up): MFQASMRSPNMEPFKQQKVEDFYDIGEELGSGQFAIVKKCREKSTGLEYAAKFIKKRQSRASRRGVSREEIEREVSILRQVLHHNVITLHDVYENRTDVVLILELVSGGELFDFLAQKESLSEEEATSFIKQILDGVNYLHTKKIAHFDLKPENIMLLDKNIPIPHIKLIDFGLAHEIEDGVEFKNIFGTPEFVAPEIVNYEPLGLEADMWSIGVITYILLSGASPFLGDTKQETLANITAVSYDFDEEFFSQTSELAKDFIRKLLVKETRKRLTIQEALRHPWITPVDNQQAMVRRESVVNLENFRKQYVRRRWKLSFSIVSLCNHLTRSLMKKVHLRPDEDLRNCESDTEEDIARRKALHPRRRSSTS
Chain of TAOK3, construct: Full length with a 14aa C-terminal extension from Gateway cloning, human (Q9H2K8 whole entry, looked up): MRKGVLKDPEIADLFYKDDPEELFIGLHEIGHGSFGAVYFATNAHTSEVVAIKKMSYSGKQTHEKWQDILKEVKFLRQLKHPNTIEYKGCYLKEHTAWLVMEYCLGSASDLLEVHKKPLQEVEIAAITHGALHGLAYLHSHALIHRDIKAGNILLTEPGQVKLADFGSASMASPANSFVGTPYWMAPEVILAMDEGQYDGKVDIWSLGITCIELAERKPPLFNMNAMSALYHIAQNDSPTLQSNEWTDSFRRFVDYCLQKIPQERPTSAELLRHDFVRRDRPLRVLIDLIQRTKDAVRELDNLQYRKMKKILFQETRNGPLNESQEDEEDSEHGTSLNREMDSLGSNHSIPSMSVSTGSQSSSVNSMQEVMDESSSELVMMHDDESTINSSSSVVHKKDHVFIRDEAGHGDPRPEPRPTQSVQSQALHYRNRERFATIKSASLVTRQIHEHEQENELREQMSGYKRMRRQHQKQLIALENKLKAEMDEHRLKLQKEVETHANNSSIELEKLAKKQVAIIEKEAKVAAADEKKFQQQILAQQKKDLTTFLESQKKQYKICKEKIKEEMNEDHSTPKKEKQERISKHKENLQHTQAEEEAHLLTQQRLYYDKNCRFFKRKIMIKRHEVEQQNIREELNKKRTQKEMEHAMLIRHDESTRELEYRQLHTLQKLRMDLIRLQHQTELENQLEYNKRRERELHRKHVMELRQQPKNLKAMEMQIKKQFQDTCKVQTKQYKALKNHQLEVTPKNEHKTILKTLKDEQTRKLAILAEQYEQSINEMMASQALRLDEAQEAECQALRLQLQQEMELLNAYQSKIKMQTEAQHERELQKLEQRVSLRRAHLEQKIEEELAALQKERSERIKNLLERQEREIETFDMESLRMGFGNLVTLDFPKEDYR

DAPK2, construct: Full length, human (from UniProt Q9UIK4)
relative phosphorylation
Settings | at +1 | at +2 | at +3 | at +4 | at -1 | at -2 | at -3 | at -4 | at -5
A fixed | 0.947 | 0.886 | 0.931 | 0.893 | 0.907 | 1.2 | 0.902 | 1.03 | 1.03
D fixed | 1.24 | 0.825 | 0.801 | 0.816 | 0.878 | 0.624 | 0.608 | 0.797 | 0.77
E fixed | 1.3 | 0.846 | 0.813 | 0.758 | 0.71 | 0.591 | 0.558 | 0.795 | 0.703
F fixed | 0.985 | 1.1 | 0.998 | 1.22 | 0.902 | 0.704 | 0.778 | 1.03 | 1.02
G fixed | 1.02 | 0.895 | 1.01 | 0.933 | 0.983 | 0.869 | 0.846 | 1.02 | 1.08
H fixed | 0.861 | 0.962 | 0.951 | 1.22 | 0.992 | 1.08 | 0.869 | 0.967 | 0.926
I fixed | 0.909 | 1.02 | 1.6 | 1.02 | 0.854 | 0.645 | 0.697 | 0.888 | 0.955
K fixed | 0.739 | 0.891 | 0.842 | 0.837 | 1.22 | 1.23 | 1.59 | 1.12 | 1.09
L fixed | 0.863 | 1.34 | 1.27 | 0.995 | 1.2 | 0.725 | 0.754 | 0.949 | 1.06
M fixed | 1.04 | 1.34 | 0.968 | 0.882 | 1.03 | 0.739 | 0.758 | 0.964 | 0.99
N fixed | 1.25 | 0.913 | 0.852 | 0.912 | 1.25 | 0.855 | 0.666 | 0.97 | 0.839
P fixed | 0.736 | 1.04 | 0.983 | 1.09 | 1.11 | 0.775 | 0.881 | 1.04 | 1.08
Q fixed | 1.77 | 0.983 | 0.878 | 0.927 | 0.995 | 0.838 | 0.716 | 0.915 | 0.869
R fixed | 0.838 | 1.05 | 1 | 0.958 | 1.21 | 3.71 | 3.95 | 1.45 | 1.47
V fixed | 0.91 | 0.948 | 1.15 | 0.973 | 0.916 | 0.688 | 0.674 | 0.894 | 0.92
W fixed | 0.79 | 0.943 | 1 | 1.39 | 0.856 | 0.961 | 0.898 | 1.06 | 0.98
Y fixed | 0.797 | 1.02 | 0.948 | 1.18 | 0.994 | 0.765 | 0.861 | 1.11 | 1.23
pThr fixed | 1.74 | 1.06 | 0.929 | 0.994 | 0.74 | 0.649 | 0.685 | 0.818 | 0.831
pTyr fixed | 1.15 | 1.02 | 1.16 | 1.04 | 0.969 | 0.696 | 0.682 | 0.811 | 0.827

SRPK3, construct: Full length, human (from UniProt Q9UPE1)
relative phosphorylation
Settings | at +1 | at +2 | at +3 | at +4 | at -1 | at -2 | at -3 | at -4 | at -5
A fixed | 0.905 | 1.14 | 0.591 | 0.865 | 1.08 | 1.46 | 0.594 | 0.904 | 0.946
D fixed | 0.388 | 1.38 | 0.427 | 0.767 | 0.598 | 3.18 | 0.543 | 0.699 | 0.69
E fixed | 0.501 | 1.15 | 0.377 | 0.67 | 0.731 | 1.53 | 0.451 | 0.818 | 0.718
F fixed | 0.56 | 0.736 | 0.505 | 0.848 | 0.727 | 0.782 | 0.389 | 0.825 | 1.1
G fixed | 0.767 | 0.962 | 0.719 | 1.03 | 1.05 | 0.997 | 0.429 | 0.929 | 1.05
H fixed | 0.649 | 1.54 | 0.577 | 0.999 | 1.3 | 0.804 | 0.444 | 0.944 | 1.09
I fixed | 0.877 | 0.777 | 0.413 | 0.739 | 0.696 | 0.471 | 0.351 | 0.865 | 0.92
K fixed | 0.963 | 1.08 | 1.06 | 1.33 | 1.34 | 0.908 | 0.724 | 1.36 | 1.33
L fixed | 1.09 | 0.601 | 0.41 | 0.846 | 0.924 | 0.551 | 0.346 | 0.791 | 0.785
M fixed | 1.01 | 0.796 | 0.467 | 0.899 | 1.02 | 0.666 | 0.403 | 0.859 | 0.906
N fixed | 0.674 | 1.31 | 0.592 | 1.04 | 0.833 | 0.938 | 0.417 | 0.83 | 0.861
P fixed | 3.97 | 0.922 | 1.39 | 1.02 | 1.58 | 0.762 | 0.387 | 0.99 | 0.74
Q fixed | 0.926 | 0.905 | 0.635 | 1.07 | 1.07 | 0.729 | 0.568 | 0.952 | 0.777
R fixed | 1.48 | 1.35 | 7.34 | 2.07 | 1.76 | 1.31 | 9.8 | 2.63 | 2.11
V fixed | 1.13 | 0.909 | 0.456 | 0.745 | 0.898 | 0.547 | 0.34 | 0.852 | 0.897
W fixed | 0.574 | 0.701 | 0.541 | 1.18 | 0.579 | 0.638 | 0.39 | 0.881 | 0.977
Y fixed | 0.537 | 0.734 | 0.496 | 0.876 | 0.818 | 0.723 | 0.429 | 0.867 | 1.1
pThr fixed | 0.601 | 1.02 | 0.572 | 0.874 | 0.69 | 1.01 | 0.644 | 1.13 | 0.863
pTyr fixed | 0.746 | 0.876 | 0.702 | 0.924 | 1.38 | 1.79 | 1.29 | 2.21 | 1.15

TAOK3, construct: Full length with a 14aa C-terminal extension from Gateway cloning, human (from UniProt Q9H2K8)
relative phosphorylation
Settings | at +1 | at +2 | at +3 | at +4 | at -1 | at -2 | at -3 | at -4 | at -5
A fixed | 0.522 | 0.851 | 0.743 | 0.866 | 0.788 | 1.15 | 0.775 | 1.01 | 1.16
D fixed | 0.371 | 0.801 | 0.592 | 0.65 | 0.99 | 1.03 | 0.879 | 1.47 | 1.59
E fixed | 0.343 | 0.54 | 0.547 | 0.658 | 0.546 | 0.718 | 0.916 | 1.54 | 1.36
F fixed | 1.34 | 0.424 | 0.68 | 0.771 | 0.709 | 1.35 | 0.543 | 0.663 | 0.81
G fixed | 0.605 | 0.943 | 1.38 | 1.11 | 2.03 | 1.43 | 1.4 | 1.27 | 1.17
H fixed | 0.973 | 1.21 | 1.19 | 1.18 | 1.28 | 0.92 | 0.95 | 1.04 | 1.09
I fixed | 1.52 | 0.593 | 0.578 | 0.859 | 0.3 | 0.508 | 0.416 | 0.497 | 0.596
K fixed | 0.647 | 2.32 | 2.11 | 1.76 | 1.54 | 0.836 | 2.45 | 1.15 | 1.35
L fixed | 1.63 | 0.507 | 0.707 | 0.681 | 0.717 | 0.526 | 0.445 | 0.536 | 0.627
M fixed | 1.52 | 0.612 | 0.606 | 0.718 | 0.911 | 0.805 | 0.566 | 0.682 | 0.629
N fixed | 0.595 | 1.73 | 1.08 | 0.891 | 1.61 | 1.15 | 1.28 | 1.42 | 1.23
P fixed | 0.551 | 1.09 | 1.14 | 0.945 | 0.707 | 1.17 | 1.23 | 1.38 | 0.984
Q fixed | 0.685 | 0.941 | 0.987 | 1.04 | 1.08 | 0.856 | 1.12 | 1.12 | 0.961
R fixed | 0.583 | 2.5 | 2.29 | 1.62 | 1.37 | 0.959 | 1.73 | 1.11 | 1.13
V fixed | 1.05 | 0.659 | 0.558 | 0.753 | 0.373 | 0.541 | 0.459 | 0.562 | 0.634
W fixed | 2.79 | 0.578 | 0.971 | 1.19 | 0.807 | 0.932 | 0.832 | 0.819 | 0.92
Y fixed | 1.28 | 0.704 | 0.854 | 1.31 | 1.24 | 2.12 | 1 | 0.726 | 0.781
pThr fixed | 0.887 | 0.729 | 0.858 | 0.782 | 0.588 | 1.11 | 1.23 | 1.49 | 1.36
pTyr fixed | 0.719 | 0.757 | 0.752 | 0.848 | 2.28 | 1.3 | 1.18 | 1.33 | 1.47
